Laboratory results taken from publication PMC3894356.

Columns and labels:
[1] = molecular target: human C-domain ACE (tACEΔ36-g13sol) R186H (human)
[2] = molecular target: human C-domain ACE (tACEΔ36-g13sol) R522K (human)
[3] = molecular target: human C-domain ACE (tACEΔ36-g13sol) R522Q (human)
[4] = molecular target: human tACEΔ36-g13sol (C-domain of angiotensin-I-converting enzyme) (human)

- Km of angiotensin I cleavage, ITC kinetic assay (progress curve), 37 °C, 0 mM NaCl, 50 mM TAPSO pH 7.5, 10 μM ZnSO4 [1]: 0.085 mM
- Km of angiotensin I cleavage, ITC kinetic assay (progress curve), 37 °C, 20 mM NaCl, 50 mM TAPSO pH 7.5, 10 μM ZnSO4 [1]: 0.095 mM
- Km of angiotensin I cleavage, ITC kinetic assay (progress curve), 37 °C, 0 mM NaCl, 50 mM TAPSO pH 7.5, 10 μM ZnSO4 [2]: 0.13 mM
- Km of angiotensin I cleavage, ITC kinetic assay (progress curve), 37 °C, 20 mM NaCl, 50 mM TAPSO pH 7.5, 10 μM ZnSO4 [2]: 0.119 mM
- Km of angiotensin I cleavage, ITC kinetic assay (progress curve), 37 °C, 0 mM NaCl, 50 mM TAPSO pH 7.5, 10 μM ZnSO4 [3]: 0.092 mM
- Km of angiotensin I cleavage, ITC kinetic assay (progress curve), 37 °C, 20 mM NaCl, 50 mM TAPSO pH 7.5, 10 μM ZnSO4 [3]: 0.077 mM
- Km of angiotensin I cleavage, ITC kinetic assay (progress curve), 37 °C, 0 mM NaCl, 50 mM TAPSO pH 7.5, 10 μM ZnSO4 [4]: 0.049 mM
- Km of angiotensin I cleavage, ITC kinetic assay (progress curve), 37 °C, 20 mM NaCl, 50 mM TAPSO pH 7.5, 10 μM ZnSO4 [4]: 0.036 mM
Binder: DRVYIHPFHL [Angiotensin I (Asp-Arg-Val-Tyr-Ile-His-Pro-Phe-His-Leu)]
